Assay results as given in the domain aggregation screens of Martell et al. (2025).

Experiment: soluble fraction after stress (log2 fold change); higher = more stays soluble; pooled small domains, quantitative proteomics
Settings: stress: pH 4
Outline: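 Custom libraries of small protein domains were pooled and measured with high-throughput quantitative proteomics after pH 4 stress. The read-out is the fold change in the amount of each domain that stays soluble after the acid stress, taken as a measure of aggregation propensity. Fold changes are on a log2 scale, and higher values mean more of the domain stayed soluble.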

Row | Sequence | soluble fraction (log2)
1 | HMFLSSEERRERIIEVLRQQDEVTVVELSHRLGVSEVTTRKDLQQLEEQGYLTRVRGGAVVSGRGQL | -0.458
2 | HMDAEWRTLTLAPEQHQQRLDRALADSLPEFSRSYVQQLIDTGMVRVNGVLAAKSAQRVKALDQVQVELR | -0.186
3 | HMEPDEIVLDHRKRIENSDAIVLIAPIWNFRMPAILEGWIDKVLAPPWAFKFKKLFGNYGYPVGNLKG | -0.121
4 | HMVNSIQIHKKLRLDKRAGSDNWYARLTLPNGKRLVKTTKTEDIETAKEVALRLYYEVDARIQNKLPAT | -0.158
5 | HMTASSYMGMQLGRLEELLKKEVLSLSEKTELKDLISDFDKIPEVVSPKIIGRYLQLKNQHFAKINA | -0.2
6 | HMVTKQKKLVLTIIERSHGHLSAEEIFFRAREEMPNIALGTVYRNLNSLTEEGIVRRITLPGTSDRFDT | -0.506
7 | HMAQVSDDAELEKWADTAIDEHPKPVEEYRAGNAASINFLMGQVMKMSRGKANPGAVMQILKQKLD | 0.22
8 | HMESIPDELLEAFKQDPAFKQAFYALTAGRQRGYIIHFSQPKQSQTRIGRIEKYKEQIFNGIGLN | -0.125
9 | HMPKHDWDAFAGAIARRVHDHGMPVSQGELVRDMMDWFAGRKDFPPPDERTVRRKVSAIWRELNG | -0.292
10 | HMTKSIDFDFREDGVYIKADKDVTIVDIVTKIDLRRIQSVDLTKIKQMLEIGSLDNWIKIAEPQMEK | -1.44
11 | HMTLTIEDGYVNAKLKTTVEGLAEDSTIKVDSIEYTNAGKNDILTVFVEDKPYRVEKYKINIAPEDS | -1.12
12 | HMDGVSLLFKLMETLPEQQKTILHLRDVEQLEFAEIAKITNTSQANVRVALSRARKKIKDLLLKQY | -1.31
13 | HMLEEIIDVKRFLVENVRGVSEKTALAILSEFGDKTMDVLRNSPNELYRIKGMSGKRIEVIKDAIANATAS | -1.33
14 | HMDVFTAKTASHIQELREKLGQQAVFGRSDVQNALGLKATRSSALLREMAEHGIIEPVTGYGKGRYHFRS | 0.361
15 | HMVWTAGEVVERIRERVGHPATIRELMQVLTIPPEDRHRFRRRIMQLVEAGELIRIRGNRYGLAD | 0.124
16 | HMAPDNDELEKAKKIVNAFIEAKAKGLGVVSLGTKMIDAPVVKRAQKIIDQTIVMGKLSLNWQDEFFN | -0.32
17 | HMSDLPLLEHARQNLSDDEFRILELTTIYGYRRVEVAKMLGEPISTINWKYNKLIKKVKTFYGEVYN | -0.567
18 | HMKELLQEMIMDILRAIASPNIDIKRKTLDLVLDLITPRNIDNVTGMLKTEVVKSQSENTSDVG | -0.572
19 | HMIFDPTTLPEKQLLVYGIISSHPGLNAKQISEMLTLKKSSIETAIKGLRKKEIIEYEGTTRNGG | -0.17
20 | HMGSTVRIVVPAADIPAYKDIQPSDLEYREVPKDEISEDAVTDPQEVINKYSTSPLYAGWPINKNIIET | -0.202
21 | HMEAYLPVTVVSDGKILTGNLEKAGKNEKWLENVLSELKTDVKNTLLLTVDPKDGLIFYPKG | 0.0447
22 | HMHQPPDLDDFEAFVGRVKPALLQALVATYGPVDGREATVDALSWAWEHWDRLADVDHPVGYLYRV | -0.189
23 | HMDADTVGQIRVVKQILDDGRLIVVDASGNPVLVRRSSALSLTAISQGDRIIVDPSVRLAIELLPNE | 0.148
24 | HMSDGHLIKVLEVLDGGEAFLGRTANGGTARFSLGQLADIRRGSVVFVSEDRWEVVPDSAWPEI | -1.29
25 | HMDLEMLEVEDTIKDLLSQHQKINAIKYYRNYMSEQLNVDMGLRQAKDTIDAIGRGATVDLSVGY | -0.783
26 | HMSGSIIQQAENLERQFGDTREAILGTLSDPKMSEEILETLMERYNKQHGTNWDKNTWAEEWAKANK | -0.355

Row | Sequence | soluble fraction (log2)
27 | HMSYTPGQWVEASMPNATFFRIVPSGNATADKMLAVATPMKVISTSGTYVKVELDSGDVGFVPEIMV | 0.102
28 | HMPNPSAGRVHIDALLPFDRVEVTDMQGSLLLDHSFSPRRAVDLDLNARGTLLYTLWSKGHLLGKGRVVR | 0.213
29 | HMSTLKSALDEIPGIGAARKRALLNHFGSTRVISSVGVKDLEQVEGVSKKIALLIYGYFHDK | ≥ 0.43
30 | HMQIMVVDEADRMLDMGFIPDIERIFQLTPFTRQTLFFSATMAPEIERITDTFLHSPERIEVAR | -1.14
31 | HMLPGKEIPLPEFLREAFARNEPALENFQNLAPSYRRQYILWITSAKTPETVQKRISESIGLLKENRKLGM | -0.0786
32 | HMHNPSYDMSKDVDILVMKFRDYNNLTDDEARFLLDKAKDAYYNTGKEILSDNEYDTLEKSLGQE | -1.17
33 | HMTKAEVLLDLQQRIISEEFLPGSWLVERDLSSEYGLSRTPIREILNKLVILGLISVQKNRGYQVR | -0.792
34 | HMGHYGQMTRDLIEKAKTYEEGEEKAALVLTIANLMKRHYLTWNRATVENTLIAEQLKEMSEGALTLPEDV | -0.962
35 | HMFETLVLALAQAWPAERGPVEALQFEGGRLSLQRSGFADEQVEALRQRLSSEGWTLQTEQGRLILNKAG | -1.11
36 | HMNASTVTLENFEGAKYDDVYGKYDYQFSVTYEQTDKYESGVIISQKPEAGTKIIKGSQVSLVVAT | 0.101
37 | HMRPTYRTRLEVLINNPAISGRDLDFAQSLLSYYERKGRLSAGRVKWVTTLEERYSPENLAASAAK | -0.306
38 | HMVVVPPPATPKPGDVTGDNKINGYDLSILLSNWKRPGATLAQGDLNKDGVVNGLDLSIMLLNWG | 0.0857
39 | HMYKDVVVPNTVGDSEEKAYQTLSALGLVVNITYDEDASKSDRVVTSQNPTNKTIKEGESVNIVVNKQP | -0.242
40 | HMTFAPTAIPSLTRPMEELMSWSFTPNEAFILSRINGLWDVRSIAKISPFPEGEVLRVFEKLHDGGLIRW | -1.54
41 | HMGAISGEQREFYTVFRGHLNSHVGEFKVEDIENLLMKAKTEVPDLLEEEFLKMGEAILNRYRN | -0.966
42 | HMEVLSKRGSTGTEVINIQKKLKNWGYYTGSVDGIYGKLTEEAVRYFQRTNGLTVDGIAGKNTLAAMGIA | 0.399
43 | HMARPLLSPREQDVLALIARGFSYSEVARLQAVTVHTIRTHIRNLYAKLSVHSKTEAVFEATRMGLLP | -0.569
44 | HMVVANTAIKSELQNIVANENKQAPLSDQKIVDQLKQAGFDISRRTVVKYRDALGIPTSRNRKR | 0.112
45 | HMDPDDEILINIMTKLLTEKQIIIKNKEIFNFLLKRINRTYEEVYNLINKMDKLSLEKKKQLTIPSIKEL | -1.52
46 | HMTVIARQIPPLVPRMLDGLEAFIKLDVPFEEKERLARVQMLRSSLDRDNLDTAEIFRAVLEAYNIELQY | 0.195
47 | HMPLRPNQRQFIHLMVYQGLDRNEAYAQANNKVLTEENYESIRTAAAKTFYTPHVNNYYHALMEEIRDRE | -0.404
48 | HMLTALTDREEEILVLLAHNLSNKEIAKRLNLSVNTVRNHTSHIYEKLNVTSRRKAITLAQSLHLLPP | -0.067
49 | HMGLKDTEVYMPDVRGLIEEEAQTKLKASFLTMKVSYTSSDEVKKGYVISQAPSADSVVLKGASVTVIVS | 0.112
50 | HMWWTPIILRDALFGVQRFEDFQKNLDVSRATLSSRLTRLVDEGLMEKVEYQQHPVRHEYVLTEKGR | 0.194
51 | HMKTAWDELNEVIEAYRGQESALIEVLHKAQEIMGYLPRDVQEAIAEGLHVPLNKVYGVVSFYHHFSV | -0.204
52 | HMESVDRIYERVRRYADDVGTAKIPMKELDDDGPLGTAVSRIRERRKRGELTEEWEARFETLPGWTWAA | -0.265

Row | Sequence | soluble fraction (log2)
53 | HMNLAISAYQQLKSDIIRGVYAPGEKLLMSRLKVRYGLGIGPMREALSQLVSEHLVTAASQRGYRVAGM | 0.129
54 | HMRNSVQREWIYDYIQRQDAHLSADEIYEGLLKEGKNISLATVYRNLSILVDEYKIASVMTDSKKQVYDK | -0.327
55 | HMTLTEQQITDNYKELRKIINDTFSGLRLDKLNHMYDDLEDRMVVAPASSVEHYHNSKVGGYVEHILHVI | -0.132
56 | HMYPQLIGFKVIDEDKGEVGVVKEVSESMHQILLTVMKGKKEILIPLAEEFITKVNRHKKELFMVLPDG | -0.383
57 | HMPRYSGMFAAWLHKALARMGKSMSDSARSAFTERVELDYSSANNELQKLSLLVGDRKVITEADVMRAIG | -0.0455
58 | HMADEIQIGLQKAIQSLPEKQKLVFSMRYYDEIPYDEMSKILDMSVGTLKTNYHYAKQKIEDFLQNH | -0.0771
59 | HMPVASNRDVNLDIGERVFVQEWAPNRTARVQYRGSPWEARLAPGAPAAAGEHRVSAVEGNWLVLEPA | -0.19
60 | HMKERLLDPYKDFIVNYLQKYPYTPAAVMHDKLKESYPDFPKVDPKTIYNFVMLLRRDFNIPKV | -0.406
61 | HMEDIPENIRYKFLLKELKENEHLNILDKENIARKLTEIDLPELEKELLENEILNSTIKDYLGIKLV | -0.912
62 | HMAPDGIEDKEGWLKVLPMITNLSIQMQNLQARGMDYEHIRNLLHETLLRYDDRIDSNLFIPNV | -0.198
63 | HMRTLRENIMDYFKQQTIIQKSSVILLPMSKRQLADYFGVQRPSLFRELKKLKEEGIIEINNRTITIK | -0.0293
64 | HMLSTNDYNENKNKLIKDFEIKFIIKHLKLNKGNVAATARSINFHPVSLRQKIAKLGIDVDEVMAG | -0.341
65 | HMTNEWRKILSNLNGKYQIVMELFYVDGFSTKEIARMLHITEVNVRSRMVRGRKQLEQILTVR | 0.0998
66 | HMAKIDSRKALIDQLTTTFTRAQLEELITKNELSTDARFFLSQWNAKGWIRKTAKNVYEKLR | 0.0107
67 | HMKTVPNVEGEKDGTAQSAIESAGLKVGKVTYQYDDNTSKGLVISQSVKGGEKVKPNTAIDLVVSNGPK | 0.22
68 | HMGGSIDITTAPPGAKIYLDADYYGKTPKRLENISAGTYRLHLLHPEKGEVYRSVTLNEKNGTLKIDENLN | 0.0705
69 | HMPDFAENAVYGKQREDSLYAHAYKHFQLGDTTTVRAAEHLSAEIYPLGQHRPKFMFLNAVTR | 0.22
70 | HMSKRDDLLDQASEWLAKLDRDLTVVEERELKAWLGESAAHRETFIQMAKLWDKMESLSRLTDL | -1.06
71 | HMGQEEKDIFLKLINISGIGPKLALNILSGIEASELEEAVRNTNVTRLSMVPGIGQKTALRIIMELSDKLE | -0.881
72 | HMSVTIENQINTYFQTRDKISRDELVALIKKDFANWTDNTINIYVSSLQKRGIIHSLSRGMYALGN | 0.22
73 | HMITLKKRRQEAILEIIEKYDLSTQDELLQKLKDSGFDATQATVSRDIKELRLVKTMGANGQYKYAVT | -0.735
74 | HMTLSHAINRLRLNANMSQEQFAGLFHVSQQSVQKWESGDSVPELSKLIAIAKHFGISLDALILGN | 0.0336
75 | HMRMSRSARLFDLLHILRSHRRAVSGQALAQQLGISIRTLYRDIASLQAQGAKIEGEPGVGYMLKP | -0.0136
76 | HMENFSTLFSRLKEERGLSNKQISSFTGAPIKEVKKWESGMGIPTEKRIVAALEGILGSEISKAI | 0.353
